According to the nanobody polyreactivity screen of Harvey et al. (2022):

Experiment: yeast display, Sf9 membrane polyspecificity reagent, FACS + sequencing; frameworks hold sequencing errors
Method in brief: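 Synthetic nanobody libraries on Saccharomyces cerevisiae BJ5465 were galactose-induced for 36–48 hours, stained 1 hour at 4 °C with 10% biotinylated, detergent-solubilized Sf9 membrane reagent and enriched on streptavidin microbeads. FACS then separated cells into low and high (top ~1%) gates by anti-HA (expression) and streptavidin (reagent binding) fluorescence. Genes were colony-PCR amplified, MiSeq 2 × 250 sequenced and CDR-length filtered. A clone's polyreactivity label is that of its gate of origin.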

With “QVQHVESGGGLVQAGGSLRLSCAASGFTIYYYAMGWYRQAPGKERELVAAISTRDGNTYYADSVKGRFTMSRDNAKNTVYLQMNSLKPEDTAVDYCAADYFRYYPYDYWGQGTQVTVSS” as the sequence, how does the “polyreactivity (PSR sort gate)” value read?
Its value is “low polyreactivity”.

With “QVQHVESGGGLVQAGGSLRLSCAASGGIFPTYVMGWYRQAPGKERELVAAIDRNGTSTTYADSVMGRFTISRDNAKNTVYLQMNSLKPEDTAVYYCAAGYNDQTTAYDYWGQGTQVTVSS” as the sequence, how does the “polyreactivity (PSR sort gate)” value read?
Its value is “low polyreactivity”.

With “QVQHVESGGGLVQAGGSLRLSCAASGIIFLRYGMGWYREAPGKERELVPAISSGGSTNYADSVKGRFTISRDNAKNTVYLQLNSLKPEDTAVYYCAALYGRGRPQDSTFLFDYWGPGTQVTVSS” as the sequence, how does the “polyreactivity (PSR sort gate)” value read?
Its value is “low polyreactivity”.

For “QVQHVESGGGLVQAGGSLRLSCAASGIILRSNAMGWYRQAPGKERELVAAINYSGGRTYYADSVKGRFTISRDTAKNTVYLQMNSLKPEDTAVYYCAAGGYPYGLSRVKLYYWGQGTQVTVSS”, which “polyreactivity (PSR sort gate)” value is on record?
The value was “high polyreactivity”.

Which “polyreactivity (PSR sort gate)” value does the source give for “QVQHVESGGGLVQAGGSLRLSCAASGITFGRNTKGWYRQAPGKERELVAAIDSGGNTYADSVKGRFTISRDNAKNTVYLQMNSLKPEDTAVYYCAVDGGEFSSYGYWGQGTQVTVSS” here?
The value was “low polyreactivity”.

For “QVQHVESGGGLVQAGGSLRLSCAASGITFVDNAMGWYRQAPGKEREWVAVISSSGGSTYYADSVKGRFTISRDNAKNSVYLQMNSLKPEDTAVYYCAARNRFYRRPYDYWGQGTQVTVSS”, which “polyreactivity (PSR sort gate)” value is on record?
Its value is “high polyreactivity”.

Which “polyreactivity (PSR sort gate)” value does the source give for “QVQHVESGGGLVQAGGSLRLSCAASGLIYAYYAMGWYRHAPGKERELVAAISRSGVSTYYADSVKGRFTISRDNAKNTVYLQMNSVKPEDTAVYYCAARWRSGFTSGDYWGQGTQVTVSS” here?
Its value is “low polyreactivity”.

Which “polyreactivity (PSR sort gate)” value does the source give for “QVQHVESGGGLVQAGGSLRLSCAASGLTFPYYVMGWYRQAPGKERELVAAIDDGGGSTYYADSVKGRFTISRDNAKNTVYLQMNSLKPVDTAVYYCAAQVDYLAHYGYWGQGTQVTVSS” here?
The value was “low polyreactivity”.

Which “polyreactivity (PSR sort gate)” value does the source give for “QVQHVESGGGLVQAGGSLRLSCAASGLTFSSYAMGWYRQAPGKERELVAAISLSGGRTYYADSVKGRFTISRDNAKNTVYLQMNSLKPEDTAVYYCAADPYANWCPYPAWYYGAYNYWGQGTQVTVSS” here?
The value was “high polyreactivity”.

For “QVQHVESGGGLVQAGGSLRLSCAASGLTLYGYTMGWYRQAPGKERELVPTITTGGDSTYYADSVKGRFTISRDNAKNTVYLQMTSLKPEDTAVYYCSAFSYGWDYSYDYWGQGTQVTVSS”, which “polyreactivity (PSR sort gate)” value is on record?
Its value is “low polyreactivity”.

With “QVQHVESGGGLVQAGGSLRLSCAASGRIFAFYAMGWYRQAPGKEREFVAAITWSGTNTYYADSVKGRFTISRDNAKNTVYLQMNSLKPEDTAVYYCNARQYYKYGYWGQGTQVTVSS” as the sequence, how does the “polyreactivity (PSR sort gate)” value read?
The value was “high polyreactivity”.

Which “polyreactivity (PSR sort gate)” value does the source give for “QVQHVESGGGLVQAGGSLRLSCAASGRIFAVNTMGWYRPAPVKERELVAAITSTGRTYYADSVKGRFTISRDNAKNTVYLQMNSLKPEDSAVYYCAADFRYPYAHLPYGYWGQGTQVTVSS” here?
Its value is “high polyreactivity”.

With “QVQHVESGGGLVQAGGSLRLSCAASGRIFEIYAMGWYRPAPGKERYLVAAISWRGVSTYYADSVKGRFTISRDYAKNTVYLQMNSLKPEDTAVFYCNNDVDYFWYVEYDYWGQGTQVTVSS” as the sequence, how does the “polyreactivity (PSR sort gate)” value read?
Its value is “low polyreactivity”.

For “QVQHVESGGGLVQAGGSLRLSCAASGRIFGWYAMGWYRQAPGKERELVAVISWRGRTYYADSVKGRFTISRDNAKNTVYLQMNSLKPEDTAVYYCNARSRSAYDYWGQGTQVTVSS”, which “polyreactivity (PSR sort gate)” value is on record?
The value was “high polyreactivity”.

Which “polyreactivity (PSR sort gate)” value does the source give for “QVQHVESGGGLVQAGGSLRLSCAASGRIFHYYAMGWYRQAPGKERELVAAINKSGGRTYYADSVKGRFTISRDNAKNTVYLQMNSLKPEDTAVYYCNKRSVPGTYYPTPVRYKYDYWGQGTQVTVSS” here?
The value was “high polyreactivity”.

For “QVQHVESGGGLVQAGGSLRLSCAASGRIFKYNAMGWYRPAPGKERELVAAISYSGGSTYYADSVKGRFTISRDNAKNTVYLQMNSVKPEDTEVYYCAKATTTREPKYGYWGQGTQVTVSS”, which “polyreactivity (PSR sort gate)” value is on record?
The value was “high polyreactivity”.

For “QVQHVESGGGLVQAGGSLRLSCAASGRIFLHNAMGWYRQAPGKERELVAAITGGGSTYYADSVKGRFTISRDNAKNTVYLQMNSLKPEDTAVYYCATLGSLRYYWPGYDYWGQGTQVTVSS”, which “polyreactivity (PSR sort gate)” value is on record?
The value was “low polyreactivity”.

With “QVQHVESGGGLVQAGGSLRLSCAASGRIFSINVMGWYRHAPGKERELVAAISKLGGSTYYADSVKGRFTISRDNAKNTVYLQMNSLKPEDTAVYYCAARRHYTYGNGPSRGGQMDYWGQGTQVTVSS” as the sequence, how does the “polyreactivity (PSR sort gate)” value read?
The value was “high polyreactivity”.

With “QVQHVESGGGLVQAGGSLRLSCAASGRIFVPYAKGWYRQPPGKERELVADISLRGGTTYYADSVKGRFTISRDNAKNTVYLQMNSLKPEDTAVYYCAARGYVSVWRPYHWFVAGDYWGQGTQVTVSS” as the sequence, how does the “polyreactivity (PSR sort gate)” value read?
The value was “high polyreactivity”.

Which “polyreactivity (PSR sort gate)” value does the source give for “QVQHVESGGGLVQAGGSLRLSCAASGRIFWGYEMGWYRQAAGKEREFVAALSSGGGRTYYADSVKGRFTISRDNAKNTVYLQMNSLKPDDSGVYYSNAELNWYYYIHLDYWGQGTQVTVSW” here?
Its value is “low polyreactivity”.

For “QVQHVESGGGLVQAGGSLRLSCAASGRIFYCYAMGWYRQAPGKERELVAAISWSGGSTYYADSVKGRFTISRDNAKNTVYLQMNSLKPEDTAVYYCARRYRGGYKYDYWGQGTQVTVSS”, which “polyreactivity (PSR sort gate)” value is on record?
The value was “high polyreactivity”.

Which “polyreactivity (PSR sort gate)” value does the source give for “QVQHVESGGGLVQAGGSLRLSCAASGRIINTYAMGWYRPAPGKERELVAAISWSGGSTYYADSVKGRFTISRDNAKNTVDLQMNSLKPEDTAVYYCNAAYYGYENLSKRGYWGQGTQVTVSS” here?
The value was “high polyreactivity”.

For “QVQHVESGGGLVQAGGSLRLSCAASGRIIWQNAMGWDRQAPGKERELVAAISSRGGTTYYADSVKGRFTISRDNAKNTVYLQINSLKPEDTAVYYCAKEVWRHYLNLYDYWGQGTQVTVSS”, which “polyreactivity (PSR sort gate)” value is on record?
Its value is “low polyreactivity”.

With “QVQHVESGGGLVQAGGSLRLSCAASGRTFFSYAMGLYRHAPGKERELVAAITYSGGRTYYADSVKGRFTISRDNAKNTVYLQMNSLKPEDTAVYYCAATHYREKIDYWGQGTQVTVSS” as the sequence, how does the “polyreactivity (PSR sort gate)” value read?
The value was “low polyreactivity”.

With “QVQHVESGGGLVQAGGSLRLSCAASGRTFISNAMGWYRQAPGKERELVATINSGGSTNYADSVKGRFTISRDNAKNTVYLQMNSLKPEDTAVYYCARRVRYKHYDYWGQGTQLTVSS” as the sequence, how does the “polyreactivity (PSR sort gate)” value read?
The value was “high polyreactivity”.

With “QVQHVESGGGLVQAGGSLRLSCAASGRTFNYYAMGWYRQAPGKERELVAAISSSGGRTYYADSVKGRFTISRDNAKNTVYLQMNSLKPEDTAVYYCAADSFYYRPEYDYWGQGTQVTVSS” as the sequence, how does the “polyreactivity (PSR sort gate)” value read?
Its value is “low polyreactivity”.

Which “polyreactivity (PSR sort gate)” value does the source give for “QVQHVESGGGLVQAGGSLRLSCAASGRTFRGYAMGWYRQAPGKERELVASISASGVRTYYADSVKGRFTISRDNAKNTVYLQMNSLKPEDTAVYYCNARHGGWYSVYYYWGQGTQVTVSS” here?
The value was “high polyreactivity”.

Which “polyreactivity (PSR sort gate)” value does the source give for “QVQHVESGGGLVQAGGSLRLSCAASGRTFRNYAMGWYRQAPGKERELVAAISSGGSTNYADSVKGRFTISRDNAKNTVYLQMNSLKPEDTAVYYCAARQRAYYGPGFDYWGQGTQVTVSS” here?
The value was “low polyreactivity”.

For “QVQHVESGGGLVQAGGSLRLSCAASGRTFRWYAMGWYRHAPGKERELVAGISRGGGSTTYADSVKGRFTISRDYAKNTVYLQMNSLKPEDTAVYYCAAYWGRTRYYGYDYYYWGQGTQLTVSS”, which “polyreactivity (PSR sort gate)” value is on record?
Its value is “high polyreactivity”.

Which “polyreactivity (PSR sort gate)” value does the source give for “QVQHVESGGGLVQAGGSLRLSCAASGRTFVNNAMGWYRQQPGKERELVAAITGSGGSTYYADSVKGRFTISRDNAKNTVYLLMNSLKPEDTAVYYCAKRLVGSRYLFDYWGQGTQVTVSS” here?
The value was “low polyreactivity”.

Which “polyreactivity (PSR sort gate)” value does the source give for “QVQHVESGGGLVQAGGSLRLSCAASGRTFVTNAKGWYRQAPGKERELVAAISSSGGSTYYADSVKGRFTISRDNAKNTVYLQMNSLKPEDTAVYYCATDRYVTPRLRFDYWGQGTQVTVSS” here?
The value was “low polyreactivity”.

Which “polyreactivity (PSR sort gate)” value does the source give for “QVQHVESGGGLVQAGGSLRLSCAASGRTLSFYAMGWYRQAPGKERELVAAINYSGGRTSYADSVKGRFTISRDNAKNTVYLQMNSLKPEDTAVYYCAKGVYPWGVYYWGQGTQVTVSS” here?
The value was “low polyreactivity”.

Which “polyreactivity (PSR sort gate)” value does the source give for “QVQHVESGGGLVQAGGSLRLSCAASGSIFGVNVMGWYRQAPGKERELVAAISSGGGSTYYAESVKGRFTISRDNAKNTVYLQMNSLKPEDTAVYYCAARGQKYGSTYRMDYWGQGTQVTVSS” here?
The value was “low polyreactivity”.

With “QVQHVESGGGLVQAGGSLRLSCAASGSIFLLYAMGCYSQAPGKERELVAAISTRDGSTYYADSVKGRFTISRDNAKNTVYLQMNSLKPEDTAVYYCATLYSYNYWGQGTQVTVSS” as the sequence, how does the “polyreactivity (PSR sort gate)” value read?
The value was “high polyreactivity”.

With “QVQHVESGGGLVQAGGSLRLSCAASGSIFTTYAMGWYRQAPGKERELVAAISSGGGTNYADSVKGRFTISRDNAKHTVYLQMNSLKPEDTAVYYCNKRYYRLQLHNAYGATPRRNYWGQGTQVTVSS” as the sequence, how does the “polyreactivity (PSR sort gate)” value read?
Its value is “low polyreactivity”.

For “QVQHVESGGGLVQAGGSLRLSCAASGSIFYYYAMGWYRQAPGKERELVATISSSSGSTYADSVKGRFTISRDNAKNTVYLQMNSLKPEDTAVYYCAKDYWGQGTKVTVSS”, which “polyreactivity (PSR sort gate)” value is on record?
Its value is “low polyreactivity”.

Which “polyreactivity (PSR sort gate)” value does the source give for “QVQHVESGGGLVQAGGSLRLSCAASGSTFAYNDMGRYRQAPGKERELVADIRSGGNTNYADSVKGRFTISRDNAKNTVYLQMNSLKPEDTAVYYCATDGYRIDVYHPDYRYDYWGQGTQVTVSS” here?
Its value is “low polyreactivity”.

For “QVQHVESGGGLVQAGGSLRLSCAASGSTFGLYAMGWYRQAPGKERELVAAISRRGGSTYYADSVKGRLTISRDNAKNTVYLQMNSLRPVETAVYDCAAVTAYRFDTLGMDYWGQGTQVTVSS”, which “polyreactivity (PSR sort gate)” value is on record?
Its value is “high polyreactivity”.

With “QVQHVESGGGLVQAGGSLRLSCAASGSTFRYYAMGWYRQAPGKERELVAAITSSGTSTYYADSVKGRFTISRDNAKNTVYLQMNSLKPEDTAVYSCAAPPVYKWVSSRYDYWGQGTQVTVSS” as the sequence, how does the “polyreactivity (PSR sort gate)” value read?
Its value is “low polyreactivity”.

With “QVQHVESGGGLVQAGGSLRLSCAASGSTFTTNAMGWYRQAPGKERELVAAITASGGRTYYADSVKGRFTISRDNAKNTVYLQMNSLKPEDTAVYYCAADSGNEYDYWGQGTQVTVSS” as the sequence, how does the “polyreactivity (PSR sort gate)” value read?
The value was “low polyreactivity”.

For “QVQHVESGGGLVQAGGSLRLSCAASGSTFWYNAMGWYRQAPGKERELVAAISYSGGRTYYADSVKGRFTISRDNAKNTVYLQMNSLKPEDTAVYYCNADSRYGGDYWGQGTQVTVSS”, which “polyreactivity (PSR sort gate)” value is on record?
The value was “low polyreactivity”.
